In this assay the target is HA-tagged human GABARAP [human]. Briefly: co-immunoprecipitation (anti-HA IP), immunoblot quantification. The note with it: 2 h, RAW 264.7 LRRK2 KO cells, read off a plot.

On to “Halo-tagged human LRRK2 (WT) mutant W875A; I878A [human] / HA-tagged human GABARAP [human] chain 1 W875A, chain 1 I878A”, for which the response (DMSO, parent: 1) was 1.1 A.U and the response (DMXAA 100 µg/mL, parent: 3.5) amounted to 1.7 A.U.
For “Halo-tagged human LRRK2 (WT) mutant W109A; L112A [human] / HA-tagged human GABARAP [human] chain 1 W109A, chain 1 L112A” the same measures were 0.25 A.U and 0.9 A.U.
For “Halo-tagged human LRRK2 (WT) mutant W109A; L112A; W875A; I878A [human] / HA-tagged human GABARAP [human] chain 1 W109A, chain 1 L112A, chain 1 W875A, chain 1 I878A” the same measures were 0.4 A.U and 0.85 A.U.

Values taken from article PMC11734622.
